Assay results published in PMC3406077 (2012).

B1: wild-type full-length (C24-P237) pallilysin [Treponema pallidum subsp. pallidum (Nichols strain)] / plasminogen-depleted human fibrinogen [human] (parent complex)
chain 1: CFQHGHVPPRRIPPHDTFGALPTAALPSNARDTAAHPSDTADNTSGSSTTTDPRSHGNAPPAPVGGAAQTHTQPPVQTAMRIALWNRATHGEQGALQHLLAGLWIQTEISPNSGDIHPLLFFDREHAEITFSRASVQEIFLVDSAHTHRKTVSFLTRNTAISSIRRRLEVTFESHEVIHVRAVEDVARLKIGSTSMWDGQYTRYHAGPASAPSP
chain 2: ADSGEGDFLAEGGGVRGPRVVERHQSACKDSDWPFCSDEDWNYKCPSGCRMKGLIDEVNQDFTNRINKLKNSLFEYQKNNKDSHSLTTNIMEILRGDFSSANNRDNTYNRVSEDLRSRIEVLKRKVIEKVQHIQLLQKNVRAQLVDMKRLEVDIDIKIRSCRGSCSRALAREVDLKDYEDQQKQLEQVIAKDLLPSRDRQHLPLIKMKPVPDLVPGNFKSQLQKVPPEWKALTDMPQMRMELERPGGNEITRGGSTSYGTGSETESPRNPSSAGSWNSGSSGPGSTGNRNPGSSGTGGTATWKPGSSGPGSTGSWNSGSSGTGSTGNQNPGSPRPGSTGTWNPGSSERGSAGHWTSESSVSGSTGQWHSESGSFRPDSPGSGNARPNNPDWGTFEEVSGNVSPGTRREYHTEKLVTSKGDKELRTGKEKVTSGSTTTTRRSCSKTVTKTVIGPDGHKEVTKEVVTSEDGSDCPEAMDLGTLSGIGTLDGFRHRHPDEAAFFDTASTGKTFPGFFSPMLGEFVSETESRGSESGIFTNTKESSSHHPGIAEFPSRGKSSSYSKQFTSSTSYNRGDSTFESKSYKMADEAGSEADHEGTHSTKRGHAKSRPVRGIHTSPLGKPSLSP
chain 3: QGVNDNEEGFFSARGHRPLDKKREEAPSLRPAPPPISGGGYRARPAKAAATQKKVERKAPDAGGCLHADPDLGVLCPTGCQLQEALLQQERPIRNSVDELNNNVEAVSQTSSSSFQYMYLLKDLWQKRQKQVKDNENVVNEYSSELEKHQLYIDETVNSNIPTNLRVLRSILENLRSKIQKLESDVSAQMEYCRTPCTVSCNIPVVSGKECEEIIRKGGETSEMYLIQPDSSVKPYRVYCDMNTENGGWTVIQNRQDGSVDFGRKWDPYKQGFGNVATNTDGKNYCGLPGEYWLGNDKISQLTRMGPTELLIEMEDWKGDKVKAHYGGFTVQNEANKYQISVNKYRGTAGNALMDGASQLMGENRTMTIHNGMFFSTYDRDNDGWLTSDPRKQCSKEDGGGWWYNRCHAANPNGRYYWGGQYTWDMAKHGTDDGVVWMNWKGSWYSMRKMSMKIRPFFPQQ
chain 4: YVATRDNCCILDERFGSYCPTTCGIADFLSTYQTKVDKDLQSLEDILHQVENKTSEVKQLIKAIQLTYNPDESSKPNMIDAATLKSRKMLEEIMKYEASILTHDSSIRYLQEIYNSNNQKIVNLKEKVAQLEAQCQEPCKDTVQIHDITGKDCQDIANKGAKQSGLYFIKPLKANQQFLVYCEIDGSGNGWTVFQKRLDGSVDFKKNWIQYKEGFGHLSPTGTTEFWLGNEKIHLISTQSAIPYALRVELEDWNGRTSTADYAMFKVGPEADKYRLTYAYFAGGDAGDAFDGFDFGDDPSDKFFTSHNGMQFSTWDNDNDKFEGNCAEQDGSGWWMNKCHAGHLNGVYYQGGTYSKASTPNGYDNGIIWATWKTRWYSMKKTTMKIIPFNRLTIGEGQQHHLGGAKQAGDV

Variants of: B1
Assay: ELISA; 20 µg protein per well; fibrinogen 0.5 µg per well; parent: 3.2; read off a plot

Going from chain 1 E176A to chain 1 H179A, the response falls from ~3.5 O.D. (492 nm) to ~3.1 O.D. (492 nm).

With chain 1 H175A the response was ~3.5 O.D. (492 nm).
